Measured values published in patent publication US20100322920 (published 2010).
“And” between values parts separate entries of the source, which are not always exact repeats. Equal values may be shown once.

Target: T1, human CD30 (TNFRSF8), recombinant (human, UniProt P28908)
T1 chain: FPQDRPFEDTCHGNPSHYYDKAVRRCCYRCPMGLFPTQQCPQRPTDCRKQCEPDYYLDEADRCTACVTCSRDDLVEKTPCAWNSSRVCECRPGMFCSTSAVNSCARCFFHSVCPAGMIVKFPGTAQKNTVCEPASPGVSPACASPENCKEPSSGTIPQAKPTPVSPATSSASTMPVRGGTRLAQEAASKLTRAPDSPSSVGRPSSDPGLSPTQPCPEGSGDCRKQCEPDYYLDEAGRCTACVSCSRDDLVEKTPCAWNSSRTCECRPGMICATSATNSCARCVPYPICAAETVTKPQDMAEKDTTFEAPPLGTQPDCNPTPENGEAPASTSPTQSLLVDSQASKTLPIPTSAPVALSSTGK
Experiment: SPR

B1: HuMab 5F11 (antibody, V domains shown)
VH: QVQLQQWGAGLLKPSETLSLTCAVYGGSFSAYYWSWIRQPPGKGLEWIGDINHGGGTNYNPSLKSRVTISVDTSKNQFSLKLNSVTAADTAVYYCASLTAYWGQGSLVTVSS
VL: DIQMTQSPTSLSASVGDRVTITCRASQGISSWLTWYQQKPEKAPKSLIYAASSLQSGVPSRFSGSGSGTDFTLTISSLQPEDFATYYCQQYDSYPITFGQGTRLEIK
  Kd: 1.12 nM and 1.14 nM and 1.23 nM and 1.36 nM
